± gives the uncertainty stated by the source.

This data set in a line: self-splicing fitness, log relative to wild type (ln ratio); higher = more splicing; Tetrahymena group I intron in knt gene, E. coli kanamycin selection, DiMSum; sequences stand for … in CUCUCU…GGAGGGAAAAGUUAUCAGGCAUGCACCUGGUAGCUAGUCUUUAAACCAAUAGAUUGCAUCGGUUUAAAAGGCAAGACCGUCAAAUUGCGGGAAAGGGGUCAACAGCCGUUCAGUACCAAGUCUCAGGGGAAACUUUGAGAUGGCCUUGCAAAGGGUAUGGUAAUAAGCUGACGGACAUGGUCCUAACCACGCAGCCAAGUCCUAAGUCAACAGAUCUUCUGUUGAUAUGGAUGCAGUUCACAGACUAAAUGUCGGUCGGGGAAGAUGUAUUCUUCUCAUAAGAUAUAGUCGGACCUCUCCUUAAUGGGAGCUAGCGGAUGAAGUGAUGCAACACUGGAGCCGCUGGGAACUAAUUUGUAUGCGAAAGUAUAUUGAUUAGUUUUGGAGUACUCGUGGUCG
The essentials: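 A randomised library covering all eight P1ex-region intron nucleotides was built with the intron in the knt kanamycin-resistance gene on pET-22b(+) and held in E. coli BL21(DE3). Cells were grown overnight at 37°C or 30°C on LB agar, with or without 25 μg/mL kanamycin, plus 100 μg/mL carbenicillin, 50 μM IPTG and 0.2% rhamnose, and pooled colonies were amplicon-sequenced on an Illumina HiSeq 2500. DiMSum fitness is the error-weighted combination of wild-type-normalised replicate fold changes, kanamycin versus none.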

For the sequence GGCAAGCAAUAUUACGCCAA, the “self-splicing fitness (ln)” value reads like this: (30 °C) -1.93 ± 0.24; (37 °C) -1.36 ± 0.21.
In the case of CGUUAGCAAUAUUACGCAUA, under “37 °C”, the “self-splicing fitness (ln)” value is -1.37 ± 0.23.
Take GCGUAGCAAUAUUACGAUUG: the “self-splicing fitness (ln)” value (30 °C) is -2.26 ± 0.18 and the “self-splicing fitness (ln)” value (37 °C) was -1.98 ± 0.21.
Regarding AUAUAGCAAUAUUACGCGGG, the “self-splicing fitness (ln)” value was -2.72 ± 0.38 (30 °C) and -1.33 ± 0.22 (37 °C).
For GCUCAGCAAUAUUACGCGGU, in that order: -3.01 ± 0.15 and -2.22 ± 0.21.
For CCCUAGCAAUAUUACGAUUU, in that order: -3.35 ± 0.17 and -1.91 ± 0.17.
For CAGUAGCAAUAUUACGAGGC, in that order: -3.19 ± 0.17 and -2.94 ± 0.3.
As to UUUGAGCAAUAUUACGGUAG, the “self-splicing fitness (ln)” value was -2.82 ± 0.39 (30 °C) and -2.41 ± 0.36 (37 °C).
The matching figures for ACCAAGCAAUAUUACGAGUU: -4.23 ± 0.23 and -1.99 ± 0.17.
Consider CACUAGCAAUAUUACGUUCC, for which the “self-splicing fitness (ln)” value is, setting by setting: (30 °C) -3.39 ± 0.17; (37 °C) -1.65 ± 0.17.
AAGUAGCAAUAUUACGUUCU: the “self-splicing fitness (ln)” value reads like this: (30 °C) -0.514 ± 0.062; (37 °C) -0.45 ± 0.09.
For CCGAAGCAAUAUUACGUGGG, in that order: -3.82 ± 0.14 and -2.39 ± 0.14.
Take GCAUAGCAAUAUUACGCCAA: the “self-splicing fitness (ln)” value by setting is: (30 °C) -4.09 ± 0.4; (37 °C) -2.76 ± 0.35.
CUGGAGCAAUAUUACGGGGC: the “self-splicing fitness (ln)” value reads like this: (30 °C) -4.12 ± 0.46; (37 °C) -2.29 ± 0.46.
The matching figures for CUCAAGCAAUAUUACGCGCU: -2.36 ± 0.18 and -3.39 ± 0.32.
For CUUUAGCAAUAUUACGCCCA, in that order: -2.92 ± 0.48 and -1.54 ± 0.38.
For CCAGAGCAAUAUUACGGUGG, in that order: -3.31 ± 0.17 and -3.31 ± 0.24.
As to GUAAAGCAAUAUUACGCUUG, the “self-splicing fitness (ln)” value (30 °C) is -2.17 ± 0.15 and the “self-splicing fitness (ln)” value (37 °C) was -1.12 ± 0.17.
The matching figures for CCACAGCAAUAUUACGUGAA: -2.7 ± 0.072 and -1.01 ± 0.082.
For UGUGAGCAAUAUUACGGUUC, in that order: -2.76 ± 0.21 and -2.9 ± 0.24.
The matching figures for CAGUAGCAAUAUUACGGCCG: -0.034 ± 0.13 and 0.348 ± 0.2.
Consider CCAUAGCAAUAUUACGUUAU, for which the “self-splicing fitness (ln)” value reads like this: (30 °C) -3.34 ± 0.14; (37 °C) -3.31 ± 0.21.
For CAGGAGCAAUAUUACGGCGA, in that order: -2.73 ± 0.29 and -3.49 ± 0.29.
Take AAGCAGCAAUAUUACGCUGU: the “self-splicing fitness (ln)” value (37 °C) was -2.7 ± 0.23.
Turning to CGCUAGCAAUAUUACGGGCC, the “self-splicing fitness (ln)” value was -2.29 ± 0.17 (30 °C) and -1.92 ± 0.19 (37 °C).
For ACGCAGCAAUAUUACGCGAA, in that order: -2.4 ± 0.15 and -1.2 ± 0.13.
For CCCCAGCAAUAUUACGUAAC, in that order: -5 ± 0.27 and -2.67 ± 0.18.
The matching figures for CGAUAGCAAUAUUACGAGCA: -3.83 ± 0.26 and -1.86 ± 0.17.
In the case of UUCCAGCAAUAUUACGGACC, the “self-splicing fitness (ln)” value (30 °C) was -1.77 ± 0.14 and the “self-splicing fitness (ln)” value (37 °C) was -0.818 ± 0.16.
For GUUCAGCAAUAUUACGCUUC, in that order: -0.641 ± 0.11 and -0.661 ± 0.14.
For the sequence CCACAGCAAUAUUACGGCUA, the “self-splicing fitness (ln)” value was -3.88 ± 0.16 (30 °C) and -2.89 ± 0.15 (37 °C).
For AGAAAGCAAUAUUACGUUUU, in that order: -3.84 ± 0.17 and -3.06 ± 0.2.
Consider GAUAAGCAAUAUUACGGGCU, for which the “self-splicing fitness (ln)” value reads like this: (30 °C) -1.95 ± 0.11; (37 °C) -1.91 ± 0.16.
As to AUAGAGCAAUAUUACGAUCA, the “self-splicing fitness (ln)” value is -0.545 ± 0.098 (30 °C) and -0.894 ± 0.15 (37 °C).
For UCGCAGCAAUAUUACGAACU, in that order: -3.13 ± 0.19 and -1.69 ± 0.17.
The matching figures for AUUUAGCAAUAUUACGCAAU: -2.53 ± 0.2 and -1.86 ± 0.18.
The matching figures for GCCCAGCAAUAUUACGUACA: -2.17 ± 0.1 and -0.789 ± 0.096.
For CUCUAGCAAUAUUACGCUUG, the “self-splicing fitness (ln)” value (30 °C) is -3.57 ± 0.24 and the “self-splicing fitness (ln)” value (37 °C) was -3.45 ± 0.42.

The record behind these values is the supplement of paper PMC7877785.
